Data taken from the MegaScale stability set (Tsuboyama et al. 2023).

B1: EEHEE_rd3_0130 (parent)
chain: TKIIVNGKTFTAPTEEEAQKIAEKLAKKAGLTVHKKNGTFELK

Variants of: B1
Assay: folding stability dG (cDNA display proteolysis); higher = more stable
Details: PBS, room temperature

Going from TKIIVNGKTFTAPTELEAQKIAEKLAKKAGLTVHKKNGTFELK to TKIIVNGKTFTAPTEDEAQKIAEKLAKKAGLTVHKKNGTFELK, the “folding stability dG” value falls from 0.722 kcal/mol to 0.611 kcal/mol.

First: TKIIVNGKTFTAPTEIEAQKIAEKLAKKAGLTVHKKNGTFELK
Second: TKIIVNGKTFTAPTECEAQKIAEKLAKKAGLTVHKKNGTFELK
The “folding stability dG” value of the first is lower: 0.723 kcal/mol for the first, 0.888 kcal/mol for the second.

First: TKIIVNGKTFTAPTEGEAQKIAEKLAKKAGLTVHKKNGTFELK
Second: TKIIVNGKTFTAPTEREAQKIAEKLAKKAGLTVHKKNGTFELK
The “folding stability dG” value of the first is lower: 0.554 kcal/mol for the first, 0.892 kcal/mol for the second.

Compared with TKIIVNGKTFTAPTEVEAQKIAEKLAKKAGLTVHKKNGTFELK, TKIIVNGKTFTAPTEAEAQKIAEKLAKKAGLTVHKKNGTFELK is higher in “folding stability dG” value: 0.573 kcal/mol for the first, 0.911 kcal/mol for the second.

Compared with TKIIVNGKTFTAPTEFEAQKIAEKLAKKAGLTVHKKNGTFELK, TKIIVNGKTFTAPTESEAQKIAEKLAKKAGLTVHKKNGTFELK is higher in “folding stability dG” value: 0.765 kcal/mol for the first, 0.797 kcal/mol for the second.

First: TKIIVNGKTFTAPTEYEAQKIAEKLAKKAGLTVHKKNGTFELK
Second: TKIIVNGKTFTAPWEEEAQKIAEKLAKKAGLTVHKKNGTFELK
The “folding stability dG” value of the first is higher: 0.864 kcal/mol for the first, 0.054 kcal/mol for the second.

Going from TKIIVNGKTFTAPPEEEAQKIAEKLAKKAGLTVHKKNGTFELK to TKIIVNGKTFTAPQEEEAQKIAEKLAKKAGLTVHKKNGTFELK, the “folding stability dG” value rises from -0.49 kcal/mol to -0.297 kcal/mol.

First: TKIIVNGKTFTAPMEEEAQKIAEKLAKKAGLTVHKKNGTFELK
Second: TKIIVNGKTFTAPSEEEAQKIAEKLAKKAGLTVHKKNGTFELK
The “folding stability dG” value of the first is lower: -0.226 kcal/mol for the first, 0.86 kcal/mol for the second.

First: TKIIVNGKTFTAPLEEEAQKIAEKLAKKAGLTVHKKNGTFELK
Second: TKIIVNGKTFTAPNEEEAQKIAEKLAKKAGLTVHKKNGTFELK
The “folding stability dG” value of the first is lower: -0.412 kcal/mol for the first, 0.897 kcal/mol for the second.

TKIIVNGKTFTAPYEEEAQKIAEKLAKKAGLTVHKKNGTFELK and TKIIVNGKTFTAPREEEAQKIAEKLAKKAGLTVHKKNGTFELK are the same in “folding stability dG” value: -0.419 kcal/mol for the first, -0.419 kcal/mol for the second.

First: TKIIVNGKTFTAPVEEEAQKIAEKLAKKAGLTVHKKNGTFELK
Second: TKIIVNGKTFTAPTEEAAQKIAEKLAKKAGLTVHKKNGTFELK
The “folding stability dG” value of the first is lower: -0.396 kcal/mol for the first, 0.997 kcal/mol for the second.

Going from TKIIVNGKTFTAPTEEYAQKIAEKLAKKAGLTVHKKNGTFELK to TKIIVNGKTFTAPTEESAQKIAEKLAKKAGLTVHKKNGTFELK, the “folding stability dG” value rises from 0.614 kcal/mol to 0.635 kcal/mol.

First: TKIIVNGKTFTAPTEEFAQKIAEKLAKKAGLTVHKKNGTFELK
Second: TKIIVNGKTFTAPTEEPAQKIAEKLAKKAGLTVHKKNGTFELK
The “folding stability dG” value of the first is higher: 0.623 kcal/mol for the first, -0.793 kcal/mol for the second.

Compared with TKIIVNGKTFTAPTEENAQKIAEKLAKKAGLTVHKKNGTFELK, TKIIVNGKTFTAPTEEKAQKIAEKLAKKAGLTVHKKNGTFELK is higher in “folding stability dG” value: 0.064 kcal/mol for the first, 0.72 kcal/mol for the second.

First: TKIIVNGKTFTAPTEERAQKIAEKLAKKAGLTVHKKNGTFELK
Second: TKIIVNGKTFTAPTEEMAQKIAEKLAKKAGLTVHKKNGTFELK
The “folding stability dG” value of the first is lower: 0.677 kcal/mol for the first, 1.19 kcal/mol for the second.

First: TKIIVNGKTFTAPTEEWAQKIAEKLAKKAGLTVHKKNGTFELK
Second: TKIIVNGKTFTAPTEEDAQKIAEKLAKKAGLTVHKKNGTFELK
The “folding stability dG” value of the first is higher: 0.923 kcal/mol for the first, 0.564 kcal/mol for the second.

Going from TKIIVNGKTFTAPTEEGAQKIAEKLAKKAGLTVHKKNGTFELK to TKIIVNGKTFTAPTEELAQKIAEKLAKKAGLTVHKKNGTFELK, the “folding stability dG” value rises from 0.263 kcal/mol to 1.25 kcal/mol.

Compared with TKIIVNGKTFTAPTEEVAQKIAEKLAKKAGLTVHKKNGTFELK, TKIIVNGKTFTAPTEEQAQKIAEKLAKKAGLTVHKKNGTFELK is lower in “folding stability dG” value: 0.922 kcal/mol for the first, 0.916 kcal/mol for the second.

Compared with TKIIVNGKTFTAPTEETAQKIAEKLAKKAGLTVHKKNGTFELK, TKIIVNGKTFTAPTEEIAQKIAEKLAKKAGLTVHKKNGTFELK is higher in “folding stability dG” value: 0.526 kcal/mol for the first, 1.33 kcal/mol for the second.

First: TKIIVNGKTFTAPTEECAQKIAEKLAKKAGLTVHKKNGTFELK
Second: TKIIVNGKTFTAPTEEHAQKIAEKLAKKAGLTVHKKNGTFELK
The “folding stability dG” value of the first is higher: 1.46 kcal/mol for the first, 0.567 kcal/mol for the second.

First: TKIIVNGKTFTAPTIEEAQKIAEKLAKKAGLTVHKKNGTFELK
Second: TKIIVNGKTFTAPTLEEAQKIAEKLAKKAGLTVHKKNGTFELK
The “folding stability dG” value of the first is lower: 0.689 kcal/mol for the first, 0.994 kcal/mol for the second.

First: TKIIVNGKTFTAPTVEEAQKIAEKLAKKAGLTVHKKNGTFELK
Second: TKIIVNGKTFTAPTSEEAQKIAEKLAKKAGLTVHKKNGTFELK
The “folding stability dG” value of the first is higher: 0.847 kcal/mol for the first, 0.561 kcal/mol for the second.

Going from TKIIVNGKTFTAPTYEEAQKIAEKLAKKAGLTVHKKNGTFELK to TKIIVNGKTFTAPTFEEAQKIAEKLAKKAGLTVHKKNGTFELK, the “folding stability dG” value falls from 1.42 kcal/mol to 1 kcal/mol.

Going from TKIIVNGKTFTAPTAEEAQKIAEKLAKKAGLTVHKKNGTFELK to TKIIVNGKTFTAPTCEEAQKIAEKLAKKAGLTVHKKNGTFELK, the “folding stability dG” value rises from 0.725 kcal/mol to 1.07 kcal/mol.

First: TKIIVNGKTFTAPTTEEAQKIAEKLAKKAGLTVHKKNGTFELK
Second: TKIIVNGKTFTAPTKEEAQKIAEKLAKKAGLTVHKKNGTFELK
The “folding stability dG” value of the first is higher: 0.439 kcal/mol for the first, 0.359 kcal/mol for the second.

Going from TKIIVNGKTFTAPTWEEAQKIAEKLAKKAGLTVHKKNGTFELK to TKIIVNGKTFTAPTDEEAQKIAEKLAKKAGLTVHKKNGTFELK, the “folding stability dG” value falls from 0.965 kcal/mol to 0.325 kcal/mol.

Compared with TKIIVNGKTFTAPTPEEAQKIAEKLAKKAGLTVHKKNGTFELK, TKIIVNGKTFTAPTNEEAQKIAEKLAKKAGLTVHKKNGTFELK is lower in “folding stability dG” value: 0.736 kcal/mol for the first, 0.31 kcal/mol for the second.

First: TKIIVNGKTFTAPTMEEAQKIAEKLAKKAGLTVHKKNGTFELK
Second: TKIIVNGKTFTAPTHEEAQKIAEKLAKKAGLTVHKKNGTFELK
The “folding stability dG” value of the first is higher: 0.994 kcal/mol for the first, 0.545 kcal/mol for the second.

Compared with TKIIVNGKTFTAPTQEEAQKIAEKLAKKAGLTVHKKNGTFELK, TKIIVNGKTFTAPTREEAQKIAEKLAKKAGLTVHKKNGTFELK is lower in “folding stability dG” value: 0.576 kcal/mol for the first, 0.366 kcal/mol for the second.

With TKIIVNGKTFTAPTGEEAQKIAEKLAKKAGLTVHKKNGTFELK the “folding stability dG” value was 0.188 kcal/mol.
